The record followed here is the supplement of paper PMC12042874.

± gives the uncertainty stated by the source.

The data set in a line: amyloid nucleation score (Sup35N fusion, yeast selection) (log enrichment); library NNK3; higher = more nucleation; inactive = no reads after selection. The procedure, abridged: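 Libraries of peptides of 20 random codons fused to Sup35N were expressed in psi-negative yeast and induced 24 hours with 100 μM copper sulfate. Selection was 7 days at 30°C on medium lacking adenine and uracil, and plasmid inserts were Illumina-sequenced before and after selection. Nucleation score is the DiMSum log enrichment of output over input reads, centred on the mode score of non-aggregating sequences, and sequences with under 100 input reads were left out.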

As for SLCMVTLDKAIRLYYNPMYF, the amyloid nucleation score came to 2.18 ± 0.08.

As for FPGNLSLNGVIHMFLYDKLW, the amyloid nucleation score entry is “inactive”.

Take WYRHGIVEYDAIIWDESARR: the amyloid nucleation score result was “inactive”.

In the case of KWLVPTQG, the amyloid nucleation score entry is “inactive”.

On to KKYVVFNGCSPYM, for which the amyloid nucleation score entry was “inactive”.

Take GRDMMWAVCDFEAKLELETG: the amyloid nucleation score entry is “inactive”.

For the substance LGMGSSDYRGRYRSNS, the amyloid nucleation score entry was “inactive”.

Take SWGQVGYIEFFIGSSCHVS: the amyloid nucleation score is -0.378 ± 0.84.

Turning to LCSLCNSLAQWRYNSEWLYT, the amyloid nucleation score result is “inactive”.

For ILIRHDAMNRYPQC, the amyloid nucleation score result is “inactive”.

The substance VSGRWFTMWSGFSLCFALSG registered an amyloid nucleation score of 0.062 ± 0.46.

Regarding EVSSTDL, the amyloid nucleation score entry was “inactive”.

RIVIPMVWEYIFSDFVFG had an amyloid nucleation score of 1.72 ± 0.088.

Take VRSLDNQLSVDFFFVGPVGF: the amyloid nucleation score is 1.3 ± 0.14.

For RVPYFYFPPLR, the amyloid nucleation score entry is “inactive”.

Take SGCYNYFCGFLLKYSMYVSL: the amyloid nucleation score entry was “inactive”.

Regarding ICSYTSVYSRKW, the amyloid nucleation score was found to be 0.404 ± 0.35.

Consider STSYGLRIVSKNDDYLRTAR, for which the amyloid nucleation score was 0.511 ± 0.19.

In the case of CCLPSYSVGCRASGDDSW, the amyloid nucleation score entry was “inactive”.

For the substance CGPFGFMCDAVGSAQFDIMM, the amyloid nucleation score entry is “inactive”.

QARRSIYSISECGGGI: the amyloid nucleation score was 0.234 ± 0.33.

SSSESKFLYTDMWHMYWDFC came in with an amyloid nucleation score of 0.548 ± 0.14.

GYSKNI: the amyloid nucleation score result is “inactive”.

In the case of SVVQIHAERYE, the amyloid nucleation score entry is “inactive”.

Take QWGSWE: the amyloid nucleation score result was “inactive”.

Consider GPEHQSVPRAFHQLRYLIYN, for which the amyloid nucleation score result is “inactive”.

For the substance SADITSTLGRYAFYF, the amyloid nucleation score entry was “inactive”.

Turning to TSNIHY, the amyloid nucleation score result is “inactive”.

Consider ILVIIKNHFVFFAGR, for which the amyloid nucleation score entry is “inactive”.

DGARLCSAAMLAGQGLDEDG: the amyloid nucleation score result is “inactive”.

Regarding DVYISKDIRCCYLLKTFLPY, the amyloid nucleation score amounted to 0.123 ± 0.27.

As to DLFLKLSCDSRI, the amyloid nucleation score entry was “inactive”.

With LCRLGSSRSVSGVRLGCTLR, the amyloid nucleation score entry is “inactive”.

In turn, YCFSWNHR had an amyloid nucleation score of 0.116 ± 0.66.

As for DSPTE, the amyloid nucleation score result was “inactive”.

Consider EADPYIPKSVFGVGFNGHVV, for which the amyloid nucleation score result is “inactive”.

As to SLHNM, the amyloid nucleation score result is “inactive”.

For RSSSIYYICFQTFTRCNYPV, the amyloid nucleation score result was “inactive”.

As to LLLSDFVSLLESPRVLHAQW, the amyloid nucleation score result was “inactive”.

As for VIMSRCPVHIDMVPRDAQPL, the amyloid nucleation score entry is “inactive”.

Take FMYILWRVSKKLFIALMWFR: the amyloid nucleation score result is “inactive”.

As for RLKMGLSN, the amyloid nucleation score is -0.846 ± 0.8.

For VFFIAAFLSTCMR, the amyloid nucleation score entry is “inactive”.

As for TVVDLLVRYSAIGSCVFSVT, the amyloid nucleation score entry is “inactive”.

Take FMHPADVEHGTREYLNVTGG: the amyloid nucleation score result is “inactive”.

The substance CVASGCTVKACFYSMREDRY came in with an amyloid nucleation score of 1.53 ± 0.092.

With FSHHIDTFV, the amyloid nucleation score result was “inactive”.

Turning to TSCQLWETIIKMLDHARTGA, the amyloid nucleation score entry was “inactive”.

For the substance RSYTDMCP, the amyloid nucleation score entry is “inactive”.

With AYWESNSIPR, the amyloid nucleation score result was “inactive”.

For the substance QRMTLNLDRCPMSYWGSTIP, the amyloid nucleation score entry is “inactive”.

Take RSDVYCWDNYRLEGSGQSSL: the amyloid nucleation score result is “inactive”.

Turning to DLHLLYKYILFAKLLV, the amyloid nucleation score result was “inactive”.

For LFSTCSSWTQFLLRPAVSAV, the amyloid nucleation score entry was “inactive”.

With HVSAARMFSSYDPRKPGENM, the amyloid nucleation score entry is “inactive”.

FTTCMNYIRRLNRKAPNKCR: the amyloid nucleation score result is “inactive”.

Take FHLYNVW: the amyloid nucleation score entry was “inactive”.

In the case of LFNDLVAHKGPDYITYATCV, the amyloid nucleation score entry was “inactive”.

As for RMHGETARWLGAQIWSDRSC, the amyloid nucleation score result is “inactive”.

Consider YVEKVYYCSVRLRYAFLDFD, for which the amyloid nucleation score result was “inactive”.

With VSHTIKAILFGFRRQDHLYF, the amyloid nucleation score entry is “inactive”.

For the substance LKVMWLWSAKINYMSIVENL, the amyloid nucleation score entry is “inactive”.

Substance FMNCWQRAGVRSLGVYGNSA came in with an amyloid nucleation score of 0.13 ± 0.45.

As for HGVPYAIEASMLMFYLTFWR, the amyloid nucleation score entry was “inactive”.

With WVCLWVIVLYHIPVLNKLLS, the amyloid nucleation score result is “inactive”.

Consider YVNFFVKVSV, for which the amyloid nucleation score entry was “inactive”.

As to TSLVFLLGLSMFM, the amyloid nucleation score entry was “inactive”.

Turning to MSMPWNNHMISNVYRSYFVA, the amyloid nucleation score entry is “inactive”.

Consider PVNFFKKFMSAMEVRYHRTK, for which the amyloid nucleation score is -0.046 ± 0.38.

With HGKKRNGRSPYINGFYLCYW, the amyloid nucleation score entry was “inactive”.

On to LNVVKNYIGLVRRHIIRVHF, for which the amyloid nucleation score result is “inactive”.

HSVFFY: the amyloid nucleation score entry was “inactive”.

On to WIPAMVYFEHNTS, for which the amyloid nucleation score entry is “inactive”.

In the case of VSHSAFVLNSCERE, the amyloid nucleation score entry was “inactive”.

As to RTSMPTTHGGLVLQSWDYRP, the amyloid nucleation score entry is “inactive”.

Consider VYEGFQVWNDGLPDLVRFGV, for which the amyloid nucleation score entry is “inactive”.

For YDAIVAPFSFSTLAVVITYG, the amyloid nucleation score result is “inactive”.

As for ELSYDRSKYSINSLWLGIPI, the amyloid nucleation score entry was “inactive”.

With ARFLYAVVLRWFIMEYRAGT, the amyloid nucleation score entry is “inactive”.

For PTKMCCLFTVIF, the amyloid nucleation score stood at 2.13 ± 0.069.

For the substance HYLRHHIAILSLATGLMETE, the amyloid nucleation score entry was “inactive”.

For the substance STYFLLILFEGKCFNCSVGK, the amyloid nucleation score is 1.38 ± 0.077.

For VHTVTSCNLKDLLMKIHCTR, the amyloid nucleation score entry was “inactive”.

As to SHKNGFFSQETR, the amyloid nucleation score entry is “inactive”.

As to SGLDRWDAEVVSILWVKLTV, the amyloid nucleation score was 1.44 ± 0.094.

With GACYTFAA, the amyloid nucleation score entry was “inactive”.

Take SELFSEMREESKGRFNIWEV: the amyloid nucleation score entry is “inactive”.

Regarding HYEVRGVLFAMPPCGNI, the amyloid nucleation score entry was “inactive”.

For SIIDKCATTLTDVSGNQLGV, the amyloid nucleation score result is “inactive”.

On to VFSIKIYKPKSSFHDRFYSV, for which the amyloid nucleation score result was “inactive”.

TPKWILMERNTSRGWATSA: the amyloid nucleation score result is “inactive”.

With ERQFMFYKVTVVIPTSHLCS, the amyloid nucleation score entry is “inactive”.

With RSIYCLRVNTGYMNKFVVLR, the amyloid nucleation score result is “inactive”.

Regarding SSPKMMCSFFDMSTLPFVYD, the amyloid nucleation score entry is “inactive”.

As for LIGLRCMPLRV, the amyloid nucleation score result was “inactive”.

With VSKLWSYLVLYPHWV, the amyloid nucleation score result was “inactive”.

Consider HLGDGTA, for which the amyloid nucleation score entry was “inactive”.

As for VKSFVSFCSGTLSPLMFRSG, the amyloid nucleation score came out at 0.535 ± 0.19.

For the substance STPSLGTSF, the amyloid nucleation score result was “inactive”.

As for NWNYLISMRGFTEYGESFWW, the amyloid nucleation score is -0.18 ± 0.61.

With LCKFYRYRTLRHSEEKPCHH, the amyloid nucleation score entry was “inactive”.

Turning to FRMQGLKVREA, the amyloid nucleation score entry was “inactive”.

Regarding DKGLGVLRHLNRWIVCTGHD, the amyloid nucleation score entry was “inactive”.

Turning to IPVGIRSRFVLYSCGMTGVK, the amyloid nucleation score result is “inactive”.

As for GAFSWCSRVVDMVRLTRCDH, the amyloid nucleation score result is “inactive”.

Consider CVVPHPLSLPSD, for which the amyloid nucleation score result is “inactive”.

Substance GLRDMGDKYVYMVSGGCIYG had an amyloid nucleation score of 2.19 ± 0.069.

For the substance WCFMQQFVFTLGRKFRIWRI, the amyloid nucleation score entry was “inactive”.

For the substance TSDIFTSRYILAIDPRMNWV, the amyloid nucleation score result is “inactive”.

Consider ILVFR, for which the amyloid nucleation score entry is “inactive”.

Regarding NSRSKNWGLVFPSNRGLVS, the amyloid nucleation score entry is “inactive”.

VVLSWT came in with an amyloid nucleation score of -0.477 ± 1.1.

Take IYIVTYICPVSSRLKGLLCQ: the amyloid nucleation score result was “inactive”.

DPSCGECFKA yielded an amyloid nucleation score of 0.961 ± 0.1.

Regarding YQNGLARWTWKYRNVINVLS, the amyloid nucleation score result is “inactive”.

IVQLVIFLSRYDVLELCMHK had an amyloid nucleation score of 0.07 ± 0.47.

Regarding RLARADNILLGRNSVSSSVK, the amyloid nucleation score entry was “inactive”.

For VGVMLYWVKEFFVL, the amyloid nucleation score result is “inactive”.

IMFSILSVMML: the amyloid nucleation score was found to be 1.74 ± 0.11.

With HTLLHEF, the amyloid nucleation score result was “inactive”.

In turn, VKWLLGMSEWKG displayed an amyloid nucleation score of -0.877 ± 2.4.

As to NPRHGYLPTIIGLDHSIHDL, the amyloid nucleation score result was “inactive”.

For KGEDPPHCSTEIPCMSRQLL, the amyloid nucleation score entry is “inactive”.

Regarding MAFGWWLDSMLYFITDALVP, the amyloid nucleation score result was “inactive”.

With DAETPLHSFGMQLLGRASMR, the amyloid nucleation score result is “inactive”.

Regarding CVTINVIFDNVVY, the amyloid nucleation score was 2.3 ± 0.061.

As to NLQERAL, the amyloid nucleation score was -0.438 ± 0.88.

On to RCLEERH, for which the amyloid nucleation score entry was “inactive”.

The substance FTDFCVCGCNVFDVMFLLQS had an amyloid nucleation score of 2.67 ± 0.056.

For YLSVPVF, the amyloid nucleation score result was “inactive”.

Take DECVYLFKNSYSVIILMFFK: the amyloid nucleation score entry is “inactive”.

Take RSCYEVLRHGREL: the amyloid nucleation score entry is “inactive”.
